Measured values published in article PMC3240954 (Scientific Reports, 2011).

B1: His-tagged WhiG (H6-WhiG) (natural protein, UniProt P17211 1-280, looked up)
chain: MPQHTSGSDRAAIPPAARDGGSVRPPAPSTLDELWRSYKTTGDERLREQLILHYSPLVKYVAGRVSVGLPPNVEQADFVSSGVFGLIDAIEKFDVDREIKFETYAITRIRGAMIDELRALDWIPRSVRQKARNVERAYATLEARLRRTPSESEVAVEMGIAVEDLHAVFSQLSLANVVALEELLHAGGEGGGRLSLMDTLEDTAADNPVEVAEDRELRRLLARAINTLPEREKTVVTLYYYEGLTLAEIGNVLGVTESRVSQIHTKSVLQLRAKLAGFGR
B2: -22/A (dsDNA)
DNA 1: CGTCATTTGGAGGTTTTGGGACAACACGCCCCTAAACTCGCCCT
DNA 2: AGGGCGAGTTTAGGGGCGTGTTGTCCCAAAACCTCCAAATGACG

Assays:
[1] = target: WhiA (S. coelicolor), full-length, untagged (S. coelicolor, UniProt Q9Z515 1-328); test: pull-down
H6-WhiA full-length = H6-WhiA full-length (Streptomyces coelicolor, UniProt Q9Z515 1-328); test: competition
Sequence of H6-WhiA full-length (Q9Z515 whole entry): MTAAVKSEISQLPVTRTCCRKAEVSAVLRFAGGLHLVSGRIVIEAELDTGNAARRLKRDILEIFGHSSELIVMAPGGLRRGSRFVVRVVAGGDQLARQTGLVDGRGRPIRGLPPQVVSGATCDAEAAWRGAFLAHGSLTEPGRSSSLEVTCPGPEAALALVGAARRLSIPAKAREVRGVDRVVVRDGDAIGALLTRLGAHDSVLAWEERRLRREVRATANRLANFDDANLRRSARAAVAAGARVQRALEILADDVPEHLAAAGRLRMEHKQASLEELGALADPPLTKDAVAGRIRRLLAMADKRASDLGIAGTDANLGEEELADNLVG

Sequence of WhiA (S. coelicolor), full-length, untagged (Q9Z515 whole entry): as above

| Binder | binding result [1] | binding result (H6-WhiA full-length) |
| --- | --- | --- |
| B1 | binds | – |
| B2 | – | binds |
